Test results: patent US20180092966A1 (CSL, published 2018)
Residue numbers refer to the chain shown, from its start. In names and notes the source's numbering stands.

Experiments:
[1] = molecular target: T1, VWF-FP N1134C mutant (albumin-fused von Willebrand Factor) (human); assay: covalent-FVIII ELISA over FVIII antigen ELISA
T1 construct: Stably expressed in CHO cells with furin co-transfected; also called VWF-FP mutant N1134C; Cys residue at VWF aa position 1134; not shown: linker between VWF and albumin, made in analogy to WO 2009/156137
T1 sequence (chain, as listed by the source N1134C N1134C): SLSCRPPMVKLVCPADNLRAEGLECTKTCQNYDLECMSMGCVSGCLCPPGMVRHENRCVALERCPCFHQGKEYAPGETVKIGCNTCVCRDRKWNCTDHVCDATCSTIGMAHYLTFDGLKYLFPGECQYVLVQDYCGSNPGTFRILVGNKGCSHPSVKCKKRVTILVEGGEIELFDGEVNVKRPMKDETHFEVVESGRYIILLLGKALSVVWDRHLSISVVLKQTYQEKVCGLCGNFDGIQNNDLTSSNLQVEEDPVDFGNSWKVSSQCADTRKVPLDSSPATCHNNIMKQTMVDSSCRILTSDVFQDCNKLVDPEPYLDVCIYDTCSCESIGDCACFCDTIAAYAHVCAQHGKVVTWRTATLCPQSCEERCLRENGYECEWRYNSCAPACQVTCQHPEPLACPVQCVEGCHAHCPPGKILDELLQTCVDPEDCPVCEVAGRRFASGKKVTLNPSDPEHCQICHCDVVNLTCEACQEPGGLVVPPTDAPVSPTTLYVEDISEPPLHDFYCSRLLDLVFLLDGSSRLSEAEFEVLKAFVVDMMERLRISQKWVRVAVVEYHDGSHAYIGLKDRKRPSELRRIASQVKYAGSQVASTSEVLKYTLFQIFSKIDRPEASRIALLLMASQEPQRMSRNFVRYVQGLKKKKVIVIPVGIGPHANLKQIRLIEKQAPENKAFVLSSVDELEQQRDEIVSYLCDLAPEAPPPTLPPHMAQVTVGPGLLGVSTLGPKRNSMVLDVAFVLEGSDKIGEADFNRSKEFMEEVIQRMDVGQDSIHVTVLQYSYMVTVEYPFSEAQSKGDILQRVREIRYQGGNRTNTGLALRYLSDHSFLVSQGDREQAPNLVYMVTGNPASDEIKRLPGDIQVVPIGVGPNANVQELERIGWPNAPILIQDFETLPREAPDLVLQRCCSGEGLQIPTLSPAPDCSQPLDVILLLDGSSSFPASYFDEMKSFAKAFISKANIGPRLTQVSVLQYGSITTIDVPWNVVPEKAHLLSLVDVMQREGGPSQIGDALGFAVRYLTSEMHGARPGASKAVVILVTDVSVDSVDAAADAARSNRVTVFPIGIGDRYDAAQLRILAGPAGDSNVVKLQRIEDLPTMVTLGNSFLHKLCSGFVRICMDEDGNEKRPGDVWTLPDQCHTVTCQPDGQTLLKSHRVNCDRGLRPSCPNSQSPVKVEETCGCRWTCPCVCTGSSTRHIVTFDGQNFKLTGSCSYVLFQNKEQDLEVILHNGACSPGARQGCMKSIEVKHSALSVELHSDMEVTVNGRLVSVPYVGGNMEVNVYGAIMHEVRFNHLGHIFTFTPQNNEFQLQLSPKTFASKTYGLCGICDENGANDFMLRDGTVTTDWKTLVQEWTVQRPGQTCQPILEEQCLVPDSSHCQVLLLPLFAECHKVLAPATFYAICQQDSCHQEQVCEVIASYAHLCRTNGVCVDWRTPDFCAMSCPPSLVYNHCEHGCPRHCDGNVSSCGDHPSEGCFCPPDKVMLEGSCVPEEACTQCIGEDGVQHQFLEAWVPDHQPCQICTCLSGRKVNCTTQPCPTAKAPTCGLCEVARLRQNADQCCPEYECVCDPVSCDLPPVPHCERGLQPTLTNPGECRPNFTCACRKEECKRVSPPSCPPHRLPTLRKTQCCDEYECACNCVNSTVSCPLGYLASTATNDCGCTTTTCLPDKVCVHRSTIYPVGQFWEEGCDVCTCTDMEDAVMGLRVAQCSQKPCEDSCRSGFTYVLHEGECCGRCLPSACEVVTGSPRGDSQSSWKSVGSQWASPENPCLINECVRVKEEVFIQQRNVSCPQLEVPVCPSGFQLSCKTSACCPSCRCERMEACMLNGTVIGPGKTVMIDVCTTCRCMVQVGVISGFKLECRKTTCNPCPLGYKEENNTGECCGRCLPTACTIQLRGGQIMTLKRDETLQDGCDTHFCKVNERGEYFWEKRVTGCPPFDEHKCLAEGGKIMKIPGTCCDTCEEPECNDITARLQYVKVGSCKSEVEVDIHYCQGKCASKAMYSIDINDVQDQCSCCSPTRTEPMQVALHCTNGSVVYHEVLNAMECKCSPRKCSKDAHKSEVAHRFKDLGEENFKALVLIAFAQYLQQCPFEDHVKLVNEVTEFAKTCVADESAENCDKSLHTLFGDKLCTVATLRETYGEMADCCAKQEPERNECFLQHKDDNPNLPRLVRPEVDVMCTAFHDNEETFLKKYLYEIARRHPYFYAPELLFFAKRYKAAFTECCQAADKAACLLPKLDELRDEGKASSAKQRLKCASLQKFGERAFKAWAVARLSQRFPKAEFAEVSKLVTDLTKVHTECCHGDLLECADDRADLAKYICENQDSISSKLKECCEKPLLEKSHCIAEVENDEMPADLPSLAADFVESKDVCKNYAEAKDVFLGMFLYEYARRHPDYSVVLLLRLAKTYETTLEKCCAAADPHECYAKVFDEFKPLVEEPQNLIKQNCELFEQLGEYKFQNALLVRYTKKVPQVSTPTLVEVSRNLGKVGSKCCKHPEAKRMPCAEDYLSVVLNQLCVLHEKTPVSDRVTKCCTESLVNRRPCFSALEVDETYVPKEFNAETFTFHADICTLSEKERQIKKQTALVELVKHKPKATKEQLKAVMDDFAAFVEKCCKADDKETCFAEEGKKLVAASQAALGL

[2] = molecular target: T2, VWF-FP P1079C mutant (albumin-fused von Willebrand Factor) (human); assay: covalent-FVIII ELISA over FVIII antigen ELISA
T2 construct: also called VWF-FP mutant P1079C; Cys residue at VWF aa position 1079; not shown: linker between VWF and albumin, made in analogy to WO 2009/156137
T2 sequence (chain, as listed by the source P1079C P1079C): as the sequence (chain, as listed by the source N1134C N1134C) above, with P316C, C371N counted along it

[3] = molecular target: T1, VWF-FP N1134C mutant (albumin-fused von …); assay: ELISA of co-expression supernatant: anti-VWF capture, 350 mM CaCl2 wash, anti-FVIII detection
Method: (§1) Cell culture supernatant samples (10 ml) from transient transfections were concentrated with Amicon Ultracell-30K (Millipore UFC903024; 3000 g centrifugation). FVIII covalently attached to VWF-FP in culture supernatant (concentrates) was determined by a standard ELISA. Briefly, microplates were incubated with 100 μL per well of the capture antibody (rabbit anti human VWF-IgG, Dako A0082 [Dako, Hamburg, Germany], diluted 1:2000 in buffer A [Sigma C3041, Sigma-Aldrich, Munich, Germany]) overnight at ambient temperature. After washing plates three times with buffer B (Sigma T9039), each well was incubated with 200 μL buffer C (Sigma T6789) for 1.5 hours at ambient temperature (blocking). After another three wash steps with buffer B, serial dilutions of the test sample in buffer B as well as serial dilutions of a control preparation of covalently linked FVIII-VWF-FP, (2.0-0.03 arbitrary U/ml in buffer B (we call these “arbitrary units” as they may not correspond to the standard FVIII units as determined using Standard Human Plasma); volumes per well: 100 μL) were incubated for 1.5 hours at ambient temperature. After three wash steps with buffer B, 200 μL of 350 mM CaCl₂ were added to each well and incubated for 1 hour at ambient temperature. CaCl₂ was removed (without washing) and additional 200 μl were added to each well and incubated further for 1 hour. After three wash steps with buffer B 100 μL of a 1:2 dilution in buffer B of the detection antibody (Detecting Antibody for FVIII:C, peroxidase labelled, Cedarlane CL20035K-D) were added to each well and incubated for 1 hour at ambient temperature. After three wash steps with buffer B, 100 μL of substrate solution (OUVF, Siemens Healthcare Diagnostics) were added per well and incubated for 15 minutes at ambient temperature in the dark. Addition of 100 μL undiluted stop dilution (OSFA, Siemens Healthcare Diagnostics) prepared the samples for reading in a suitable microplate reader at 450 nm wavelength. Concentrations of the test samples were then calculated using the standard curve with the control preparation.

[4] = molecular target: T2, VWF-FP P1079C mutant (albumin-fused von …); assay: as above
Method: as §1

[5] = molecular target: T1, VWF-FP N1134C mutant (albumin-fused von …); assay: covalent-FVIII ELISA over FVIII activity assay
[6] = molecular target: T2, VWF-FP P1079C mutant (albumin-fused von …); assay: covalent-FVIII ELISA over FVIII activity assay
[7] = molecular target: T3, VWF-FP K1116C mutant (albumin-fused von Willebrand Factor) (human); assay: covalent-FVIII ELISA over FVIII antigen ELISA
T3 construct: Stably expressed in CHO cells with furin co-transfected; also called VWF-FP mutant K1116C; Cys residue at VWF aa position 1116; not shown: linker between VWF and albumin, made in analogy to WO 2009/156137
T3 sequence (chain, as listed by the source K1116C K1116C): as the sequence (chain, as listed by the source N1134C N1134C) above, with K353C, C371N counted along it

[8] = molecular target: T3, VWF-FP K1116C mutant (albumin-fused von …); assay: ELISA of co-expression supernatant: anti-VWF capture, 350 mM CaCl2 wash, anti-FVIII detection
Method: as §1

[9] = molecular target: T3, VWF-FP K1116C mutant (albumin-fused von …); assay: covalent-FVIII ELISA over FVIII activity assay
[10] = molecular target: T4, VWF-FP R768C mutant (albumin-fused von Willebrand Factor) (human); assay: covalent-FVIII ELISA over FVIII antigen ELISA
T4 construct: Stably expressed in CHO cells with furin co-transfected; also called VWF-FP mutant R768C; Cys residue at VWF aa position 768; not shown: linker between VWF and albumin, made in analogy to WO 2009/156137
T4 sequence (chain, as listed by the source R768C R768C): as the sequence (chain, as listed by the source N1134C N1134C) above, with R5C, C371N counted along it

[11] = molecular target: T5, VWF-FP E1015C mutant (albumin-fused von Willebrand Factor) (human); assay: covalent-FVIII ELISA over FVIII antigen ELISA
T5 construct: Stably expressed in CHO cells with furin co-transfected; also called VWF-FP mutant E1015C; Cys residue at VWF aa position 1015; not shown: linker between VWF and albumin, made in analogy to WO 2009/156137
T5 sequence (chain, as listed by the source E1015C E1015C): as the sequence (chain, as listed by the source N1134C N1134C) above, with E252C, C371N counted along it

[12] = molecular target: T4, VWF-FP R768C mutant (albumin-fused von …); assay: ELISA of co-expression supernatant: anti-VWF capture, 350 mM CaCl2 wash, anti-FVIII detection
Method: as §1

[13] = molecular target: T5, VWF-FP E1015C mutant (albumin-fused von …); assay: as above
Method: as §1

[14] = molecular target: T4, VWF-FP R768C mutant (albumin-fused von …); assay: covalent-FVIII ELISA over FVIII activity assay
[15] = molecular target: T5, VWF-FP E1015C mutant (albumin-fused von …); assay: covalent-FVIII ELISA over FVIII activity assay

B1: Factor VIII SingleChain T1654C mutant (other)
chain: ATRRYYLGAVELSWDYMQSDLGELPVDARFPPRVPKSFPFNTSVVYKKTLFVEFTDHLFNIAKPRPPWMGLLGPTIQAEVYDTVVITLKNMASHPVSLHAVGVSYWKASEGAEYDDQTSQREKEDDKVFPGGSHTYVWQVLKENGPMASDPLCLTYSYLSHVDLVKDLNSGLIGALLVCREGSLAKEKTQTLHKFILLFAVFDEGKSWHSETKNSLMQDRDAASARAWPKMHTVNGYVNRSLPGLIGCHRKSVYWHVIGMGTTPEVHSIFLEGHTFLVRNHRQASLEISPITFLTAQTLLMDLGQFLLFCHISSHQHDGMEAYVKVDSCPEEPQLRMKNNEEAEDYDDDLTDSEMDVVRFDDDNSPSFIQIRSVAKKHPKTWVHYIAAEEEDWDYAPLVLAPDDRSYKSQYLNNGPQRIGRKYKKVRFMAYTDETFKTREAIQHESGILGPLLYGEVGDTLLIIFKNQASRPYNIYPHGITDVRPLYSRRLPKGVKHLKDFPILPGEIFKYKWTVTVEDGPTKSDPRCLTRYYSSFVNMERDLASGLIGPLLICYKESVDQRGNQIMSDKRNVILFSVFDENRSWYLTENIQRFLPNPAGVQLEDPEFQASNIMHSINGYVFDSLQLSVCLHEVAYWYILSIGAQTDFLSVFFSGYTFKHKMVYEDTLTLFPFSGETVFMSMENPGLWILGCHNSDFRNRGMTALLKVSSCDKNTGDYYEDSYEDISAYLLSKNNAIEPRSFSQNSRHRSTRQKQFNATTIPENTCLQSDQEEIDYDDTISVEMKKEDFDIYDEDENQSPRSFQKKTRHYFIAAVERLWDYGMSSSPHVLRNRAQSGSVPQFKKVVFQEFTDGSFTQPLYRGELNEHLGLLGPYIRAEVEDNIMVTFRNQASRPYSFYSSLISYEEDQRQGAEPRKNFVKPNETKTYFWKVQHHMAPTKDEFDCKAWAYFSDVDLEKDVHSGLIGPLLVCHTNTLNPAHGRQVTVQEFALFFTIFDETKSWYFTENMERNCRAPCNIQMEDPTFKENYRFHAINGYIMDTLPGLVMAQDQRIRWYLLSMGSNENIHSIHFSGHVFTVRKKEEYKMALYNLYPGVFETVEMLPSKAGIWRVECLIGEHLHAGMSTLFLVYSNKCQTPLGMASGHIRDFQITASGQYGQWAPKLARLHYSGSINAWSTKEPFSWIKVDLLAPMIIHGIKTQGARQKFSSLYISQFIIMYSLDGKKWQTYRGNSTGTLMVFFGNVDSSGIKHNIFNPPIIARYIRLHPTHYSIRSTLRMELMGCDLNSCSMPLGMESKAISDAQITASSYFTNMFATWSPSKARLHLQGRSNAWRPQVNNPKEWLQVDFQKTMKVTGVTTQGVKSLLTSMYVKEFLISSSQDGHQWTLFFQNGKVKVFQGNQDSFTPVVNSLDPPLLTRYLRIHPQSWVHQIALRMEVLGCEAQDLY
notes: Single-chain FVIII with partial B-domain deletion (per WO 2004/067566); also called FVIII-SC T1654C; Cys residue at FVIII aa position 1654
[1]
  ratio covalent FVIII/Total FVIII antigen: 0.85
[2]
  ratio covalent FVIII/Total FVIII antigen: 0.97
[3]
  covalent FVIII: 424 amU/ml
[4]
  covalent FVIII: 409 amU/ml
[5]
  ratio covalent FVIII/Total FVIII activity: 1.14
[6]
  ratio covalent FVIII/Total FVIII activity: 1.59

B2: Factor VIII SingleChain F1677C mutant (other)
chain: B1 chain with C766T, F789C
notes: Single-chain FVIII with partial B-domain deletion; also called FVIII-SC F1677C; Cys residue at FVIII aa position 1677
[7]
  ratio covalent FVIII/Total FVIII antigen: 0.79
[8]
  covalent FVIII: 1080 amU/ml
[9]
  ratio covalent FVIII/Total FVIII activity: 1.66

B3: Factor VIII SingleChain Q1686C mutant (other)
chain: B1 chain with C766T, Q798C
notes: Single-chain FVIII with partial B-domain deletion; also called FVIII-SC Q1686C; Cys residue at FVIII aa position 1686
[7]
  ratio covalent FVIII/Total FVIII antigen: 5.24
[1]
  ratio covalent FVIII/Total FVIII antigen: 5.43
[10]
  ratio covalent FVIII/Total FVIII antigen: 0.51
[11]
  ratio covalent FVIII/Total FVIII antigen: 0.64
[8]
  covalent FVIII: 2740 amU/ml
[3]
  covalent FVIII: 693 amU/ml
[12]
  covalent FVIII: 506 amU/ml
[13]
  covalent FVIII: 1640 amU/ml
[9]
  ratio covalent FVIII/Total FVIII activity: 0.86
[5]
  ratio covalent FVIII/Total FVIII activity: 0.76
[14]
  ratio covalent FVIII/Total FVIII activity: 1.03
[15]
  ratio covalent FVIII/Total FVIII activity: 1.21

B4: Factor VIII SingleChain D1681C mutant (other)
chain: B1 chain with C766T, D793C
notes: Single-chain FVIII with partial B-domain deletion; also called FVIII-SC D1681C; Cys residue at FVIII aa position 1681
[7]
  ratio covalent FVIII/Total FVIII antigen: 2.23
[10]
  ratio covalent FVIII/Total FVIII antigen: 1.55
[8]
  covalent FVIII: 1440 amU/ml
[12]
  covalent FVIII: 87 amU/ml
[9]
  ratio covalent FVIII/Total FVIII activity: 0.6
[14]
  ratio covalent FVIII/Total FVIII activity: 1.5

B5: Factor VIII SingleChain S1687C mutant (other)
chain: B1 chain with C766T, S799C
notes: Single-chain FVIII with partial B-domain deletion; also called FVIII-SC S1687C; Cys residue at FVIII aa position 1687
[1]
  ratio covalent FVIII/Total FVIII antigen: 2.05
[10]
  ratio covalent FVIII/Total FVIII antigen: 0.49
[3]
  covalent FVIII: 843 amU/ml
[12]
  covalent FVIII: 390 amU/ml
[5]
  ratio covalent FVIII/Total FVIII activity: 1.05
[14]
  ratio covalent FVIII/Total FVIII activity: 1.44

B6: Factor VIII SingleChain Q1656C mutant (other)
chain: B1 chain with C766T, Q768C
notes: Single-chain FVIII with partial B-domain deletion; also called FVIII-SC Q1656C; Cys residue at FVIII aa position 1656
[1]
  ratio covalent FVIII/Total FVIII antigen: 1
[3]
  covalent FVIII: 435 amU/ml
[5]
  ratio covalent FVIII/Total FVIII activity: 0.44

B7: Factor VIII SingleChain I1679C mutant (other)
chain: B1 chain with C766T, I791C
notes: Single-chain FVIII with partial B-domain deletion; also called FVIII-SC I1679C mutant; Cys residue at FVIII aa position 1679
[7]
  ratio covalent FVIII/Total FVIII antigen: 0.85
[2]
  ratio covalent FVIII/Total FVIII antigen: 1.14
[8]
  covalent FVIII: 992 amU/ml
[4]
  covalent FVIII: 398 amU/ml
[9]
  ratio covalent FVIII/Total FVIII activity: 1.12
[6]
  ratio covalent FVIII/Total FVIII activity: 1.26

B8: Factor VIII SingleChain D1683C mutant (other)
chain: B1 chain with C766T, D795C
notes: Single-chain FVIII with partial B-domain deletion; also called FVIII-SC D1683C; Cys residue at FVIII aa position 1683
[7]
  ratio covalent FVIII/Total FVIII antigen: 1.76
[10]
  ratio covalent FVIII/Total FVIII antigen: 3.07
[8]
  covalent FVIII: 1350 amU/ml
[12]
  covalent FVIII: 2210 amU/ml
[9]
  ratio covalent FVIII/Total FVIII activity: 0.42
[14]
  ratio covalent FVIII/Total FVIII activity: 4.07

B9: Factor VIII SingleChain E1684C mutant (other)
chain: B1 chain with C766T, E796C
notes: Single-chain FVIII with partial B-domain deletion; also called FVIII-SC E1684C; Cys residue at FVIII aa position 1684
[7]
  ratio covalent FVIII/Total FVIII antigen: 1.53
[1]
  ratio covalent FVIII/Total FVIII antigen: 3.15
[10]
  ratio covalent FVIII/Total FVIII antigen: 0.69
[8]
  covalent FVIII: 1150 amU/ml
[3]
  covalent FVIII: 741 amU/ml
[12]
  covalent FVIII: 491 amU/ml
[9]
  ratio covalent FVIII/Total FVIII activity: 0.38
[5]
  ratio covalent FVIII/Total FVIII activity: 0.88
[14]
  ratio covalent FVIII/Total FVIII activity: 1.05

B10: Factor VIII SingleChain E1682C mutant (other)
chain: B1 chain with C766T, E794C
notes: Single-chain FVIII with partial B-domain deletion; also called FVIII-SC E1682C; Cys residue at FVIII aa position 1682
[7]
  ratio covalent FVIII/Total FVIII antigen: 1.23
[10]
  ratio covalent FVIII/Total FVIII antigen: 2.23
[8]
  covalent FVIII: 488 amU/ml
[12]
  covalent FVIII: 328 amU/ml
[9]
  ratio covalent FVIII/Total FVIII activity: 0.34
[14]
  ratio covalent FVIII/Total FVIII activity: 2.11
